Several values for one entry are separate records, joined by “and”; a condition that tells them apart may be missing. Equal entries are not always repeated.
Tests used:
[1] = target: Angiotensin-I Converting Enzyme; assay: cell-based or functional assay
[2] = target: Angiotensin-I Converting Enzyme (ACE); assay: cell-based or functional assay

Ovotransferrin (TRFE_CHICK), not hydrolysed and not digested, sequence (P02789 20-705 limits assumed): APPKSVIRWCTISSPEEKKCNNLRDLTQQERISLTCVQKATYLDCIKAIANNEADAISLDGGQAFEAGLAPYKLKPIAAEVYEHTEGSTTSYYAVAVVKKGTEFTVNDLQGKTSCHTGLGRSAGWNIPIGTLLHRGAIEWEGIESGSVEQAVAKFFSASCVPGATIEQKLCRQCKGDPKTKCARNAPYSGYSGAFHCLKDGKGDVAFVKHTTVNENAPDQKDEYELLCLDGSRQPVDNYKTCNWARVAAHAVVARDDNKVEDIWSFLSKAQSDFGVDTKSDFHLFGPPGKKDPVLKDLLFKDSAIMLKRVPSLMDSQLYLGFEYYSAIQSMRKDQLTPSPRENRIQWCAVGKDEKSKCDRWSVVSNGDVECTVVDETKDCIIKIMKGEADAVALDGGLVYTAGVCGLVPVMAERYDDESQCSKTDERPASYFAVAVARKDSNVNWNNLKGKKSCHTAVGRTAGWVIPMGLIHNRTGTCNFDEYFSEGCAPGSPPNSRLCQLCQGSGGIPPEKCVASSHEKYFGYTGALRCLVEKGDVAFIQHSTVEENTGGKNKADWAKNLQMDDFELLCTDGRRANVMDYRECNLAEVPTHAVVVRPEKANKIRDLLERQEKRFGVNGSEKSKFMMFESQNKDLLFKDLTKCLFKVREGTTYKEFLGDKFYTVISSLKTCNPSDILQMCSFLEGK

Substance | ACE inhibition (% inhibition) at 0.5 mg/ml [2] | inhibition (%) at 0.0625 mg/ml [2] | inhibition (%) at 0.125 mg/ml [2] | inhibition (%) at 0.25 mg/ml [2] | inhibition (%) at 0.5 mg/ml [2] | inhibition (%) at 2 mg/ml [2] | inhibition (%) at 1 mg/ml [2] | also measured
Egg White/Alcalase (LS 250903) |  |  |  |  |  |  |  | IC50 (mg/mL), ACE inhibition (Hip-His-Leu assay) [1]: 0.46 mg/mL
Egg yolk/PEM hydrolysate | 58% and 62% and 53% | 15.4% and 25.4% | 28.8% and 52.8% | 45.3% and 36.6% | 62.1% and 52.9% | 99.7% and 96.6% | 69.8% and 64.6% | 
EggWhite 1101/Alcalase hydrolysate |  | 19.6% and 10.7% | 34.2% and 12.8% | 46.5% and 32.1% | 63.1% and 39.9% |  | 66.5% and 71.7% | 
EggWhite 1101/Promod 258P hydrolysate |  | 27.9% and 20% | 40.3% and 36.2% | 45% and 33.9% | 62.8% and 47.2% |  | 77.9% and 78.4% | 
EggWhite 1101/Protex 6L hydrolysate |  | 17% and 11.9% | 20.2% and 23% | 31.3% and 33.3% | 50.6% and 44.4% |  | 63.2% and 62.2% | 
EggWhite 1102/Promod 258P hydrolysate |  |  |  | 42.8% and 19.5% | 62% and 42.7% | 91.3% and 76.8% | 75% and 61.9% | 
Lysozyme (Lysozyme C, LYC_CHICK), not hydrolysed and not digested (from UniProt P00698 19-147) (enzyme) |  |  |  |  |  |  |  | ACE inhibition (%) at 0.167 mg/ml, Hip-His-Leu/TNBS microtiter assay [2]: -4.7%
Lysozyme/Alcalase hydrolysate | 70% and 82% and 58% | 35.2% and 14.3% |  |  | 82.1% and 58.1% | 126% and 102% | 81.3% and 79.9% | 
Lysozyme/PTN hydrolysate | 52% and 62% and 42% | 18.9% and 6.4% |  |  | 62.4% and 42% | 79.7% and 103% | 75.7% and 75.8% | 
Lysozyme/Protex 6L hydrolysate | 71% and 74% and 69% | 42.4% and 30.9% | 42.2% and 44.6% | 65.8% and 58.3% | 73.9% and 68.7% |  | 83% and 83.5% | 
Ovalbumin hydrolysate (enzyme of the column not resolvable: PEM, Newlase F or Alcalase) |  | -6.8% and 0% | 0% and 1.6% | 17.4% and 13.4% | 31.1% and 24.6% | 87.8% and 64.4% | 18.2% and 41.3% | 
Ovomucin, not hydrolysed and not digested |  |  |  |  |  |  |  | ACE inhibition (%) at 0.019 mg/ml, Hip-His-Leu/TNBS microtiter assay [2]: -0.4%; ACE inhibition (%) at 0.056 mg/ml, Hip-His-Leu/TNBS microtiter assay [2]: 5.2%; ACE inhibition (%) at 0.167 mg/ml, Hip-His-Leu/TNBS microtiter assay [2]: 2.2%; ACE inhibition (%) at 0.500 mg/ml, Hip-His-Leu/TNBS microtiter assay [2]: 2.1%
Ovomucin/Newlase F hydrolysate |  | -13.7% and 7.8% |  | 30.6% and 18.6% | 42.5% and 31.3% | 59.6% and 49.2% | 45.7% and 49.2% | 
Ovomucin/PTN hydrolysate | 50% and 55% and 45% |  | 19.7% and 16.9% | 43.8% and 21% | 55.3% and 44.7% |  | 65.5% and 50.9% | 
Ovomucin/Protex 6L hydrolysate | 59% and 69% and 49% | 24.9% and 5.1% | 31.4% and 16.3% | 47.8% and 30.5% | 68.5% and 49% | 90.8% and 65.8% | 87.6% and 65% | 
Ovotransferrin (TRFE_CHICK), not hydrolysed and not digested (from UniProt P02789 20-705) |  |  |  |  |  |  |  | ACE inhibition (%) at 0.019 mg/ml, Hip-His-Leu/TNBS microtiter assay [2]: 0.7%; ACE inhibition (%) at 0.056 mg/ml, Hip-His-Leu/TNBS microtiter assay [2]: -4.1%; ACE inhibition (%) at 0.167 mg/ml, Hip-His-Leu/TNBS microtiter assay [2]: 0.7%; ACE inhibition (%) at 0.500 mg/ml, Hip-His-Leu/TNBS microtiter assay [2]: -0.3%
Ovotransferrin/Promod 258P hydrolysate | 62% and 58% and 66% | 18.4% and -1% | 40% and 18.8% | 41.1% and 45.1% | 57.7% and 66.3% | 121% and 104% | 85.2% and 86.2% | 

More lines, main results first:

ACE inhibition (% inhibition) at 0.5 mg/ml [2] | inhibition (%) at 0.0625 mg/ml [2] | inhibition (%) at 0.125 mg/ml [2] | inhibition (%) at 0.25 mg/ml [2] | inhibition (%) at 0.5 mg/ml [2] | inhibition (%) at 2 mg/ml [2] | inhibition (%) at 1 mg/ml [2] | Substance | also measured
68% and 76% and 61% | 30.9% and 6.5% | 45.7% and 25.1% | 59.1% and 41.9% | 75.8% and 61% | 100% |  | Egg yolk/Alcalase hydrolysate | 
57% and 51% | 15.5% and 21.6% | 21.7% and 18.2% | 24.1% and 36.1% | 51.3% and 57.3% |  | 69.5% and 80% | Egg yolk/Newlase F hydrolysate | 
 |  |  | 27.6% and 44.3% |  | 96.9% and 78.1% | 75.7% and 59.9% | Egg yolk/PTN hydrolysate | 
 | 15% and 22.4% | 26.6% and 37% | 41.3% and 62.7% |  | 105% and 89.9% |  | Egg yolk/Protex 6L hydrolysate | 
 | 18.2% and 2.4% | 36.4% and 16.7% | 43% and 23.3% | 58.8% and 48.1% | 86.3% and 65.8% | 76.9% and 67% | EggWhite 1102/Alcalase hydrolysate | 
 | 16.3% and 4.9% | 24.7% and 19% | 33.2% and 41.7% | 47% and 49.2% | 60.2% and 71.8% | 58.4% and 66% | EggWhite 1102/Protex 6L hydrolysate | 
56% and 55% and 58% | 29.2% and 27.3% | 38% and 35.1% | 49.7% and 49.5% | 54.7% and 58% | 102% and 123% |  | Lysozyme/PEM hydrolysate | 
 | 23.4% and 3.1% | 7.3% and 16.2% |  |  | 89.2% and 74.8% |  | Ovalbumin/Alcalase hydrolysate | 
 | 3.7% | 16.3% | 23.5% | 45.8% | 82.5% | 55.9% | Ovalbumin/Newlase F hydrolysate | 
 |  |  |  | 51.4% and 27.7% | 61% and 39.1% | 57.3% and 36.3% | Ovalbumin/PEM hydrolysate | 
53% and 49% and 58% | 14% and 8.7% | 40.7% and 23.2% | 37.3% and 33.8% | 48.6% and 57.6% | 103% and 78.2% | 87.5% and 67% | Ovalbumin/Promod 258P hydrolysate | 
56% and 57% and 55% | 24% and 22% | 25.5% and 33.2% | 37.1% and 43.8% | 57.3% and 55.2% | 81.7% and 86% | 67.2% and 69.9% | Ovomucin/Alcalase hydrolysate | ACE activity IC50; total hydrolysis time 11.5 hours (batch for animal study) [2]: 230 µg/mL; ACE inhibition IC50; hydrolysis 4 h, 2% enzyme, DH 0% [2]: > 2000 µg/mL; ACE inhibition IC50; hydrolysis 5 h, 4% enzyme, DH 5.0% [2]: 760 µg/mL; ACE inhibition IC50; hydrolysis 5 h, 4% enzyme, DH 12.0 [2]: 540 µg/mL; ACE inhibition IC50; hydrolysis 6 h, 4% enzyme, DH 7.7% [2]: 660 µg/mL; ACE inhibition IC50; hydrolysis 7 h, 6% enzyme, DH 12.9% [2]: 450 µg/mL; ACE inhibition IC50; hydrolysis 7.5 h, 6% enzyme, DH 15.0% [2]: 430 µg/mL; ACE inhibition IC50; hydrolysis 8 h, 6% enzyme, DH 21.7 [2]: 390 µg/mL; ACE inhibition IC50; hydrolysis 10.5 h, 8% enzyme, DH 21.2 [2]: 250 µg/mL; ACE inhibition IC50; hydrolysis 10.5 h, 8% enzyme, DH 23.9 [2]: 210 µg/mL; ACE inhibition IC50; hydrolysis 13.5 h, 10% enzyme, DH 22.0 [2]: 180 µg/mL; ACE inhibition IC50; hydrolysis 16.5 h, 12% enzyme, DH 21.1 [2]: 180 µg/mL
 | 25.9% and 5.5% | 13.3% and 9.1% | 41.1% and 19.6% and 36.1% | 66.3% and 43.1% and 48.6% | 73.1% and 78.1% and 88% | 51.3% and 62.3% and 66% | Ovomucin/PEM hydrolysate | 
70% and 71% and 69% | 26.9% and 28.7% | 33.7% and 50.9% | 58.6% and 51.6% | 70.5% and 69.1% |  | 96.1% and 83.1% | Ovotransferrin/Newlase F hydrolysate | inhibition (%) at 2 mg/ml (*Absorption above 3) [2]: 64.3% and 46.8%
55% and 52% and 57% | -19.4% and -10.7% |  | 9.8% and 31.8% | 52.4% and 56.6% |  | 69.1% and 73.8% | Ovotransferrin/PEM hydrolysate | 
64% and 68% and 60% |  | 28.3% and 37.9% | 51% and 49.8% | 67.8% and 59.9% |  | 80.3% and 84.3% | Ovotransferrin/PTN hydrolysate | 
59% and 60% | 13.7% and 12% | 30.6% and 19.1% | 44.4% and 34.4% | 60.2% and 58.6% | 97.3% and 88% | 76.8% and 70.2% | Ovotransferrin/Protex 6L hydrolysate | 
